# Assay results as given in patent publication US12630600B2 (MEDIMMUNE LIMITED, priority 2022, dated 2026).
# Starred links: 1 amine or outer side, 2 acyl side, 3 side chain; linkers in the order of their positions; H or OH if unused. Non-standard residues stand in square brackets, D forms with d. Groups on a side chain read outwards from the residue. No end group written: not given here. *: point of attachment. C20 diacid = O=C(O)CCCCCCCCCCCCCCCCCCC(=O)*; C18 diacid = O=C(O)CCCCCCCCCCCCCCCCC(=O)*; γGlu = O=C(O)[C@H](CCC(=O)[*:2])N[*:1]; αMeF = C[C@](N)(Cc1ccccc1)C(=O)O; AEEA = NCCOCCOCC(=O)O; Aib = CC(C)(N)C(=O)O
# B1: Peptide 148 (peptide)
# peptide: H[Aib]QGTFTSDVSK[αMeF]LDSK([AEEA-AEEA-γGlu-C18 diacid])RAQDFVRWIAE[Aib]G-OH
# modifications: N-terminus assumed
# SMILES: CC[C@H](C)[C@H](NC(=O)[C@H](Cc1c[nH]c2ccccc12)NC(=O)[C@H](CCCNC(=N)N)NC(=O)[C@@H](NC(=O)[C@H](Cc1ccccc1)NC(=O)[C@H](CC(=O)O)NC(=O)[C@H](CCC(N)=O)NC(=O)[C@H](C)NC(=O)[C@H](CCCNC(=N)N)NC(=O)[C@H](CCCCNC(=O)COCCOCCNC(=O)COCCOCCNC(=O)CC[C@H](NC(=O)CCCCCCCCCCCCCCCCC(=O)O)C(=O)O)NC(=O)[C@H](CO)NC(=O)[C@H](CC(=O)O)NC(=O)[C@H](CC(C)C)NC(=O)[C@](C)(Cc1ccccc1)NC(=O)[C@H](CCCCN)NC(=O)[C@H](CO)NC(=O)[C@@H](NC(=O)[C@H](CC(=O)O)NC(=O)[C@H](CO)NC(=O)[C@@H](NC(=O)[C@H](Cc1ccccc1)NC(=O)[C@@H](NC(=O)CNC(=O)[C@H](CCC(N)=O)NC(=O)C(C)(C)NC(=O)[C@@H](N)Cc1c[nH]cn1)[C@@H](C)O)[C@@H](C)O)C(C)C)C(C)C)C(=O)N[C@@H](C)C(=O)N[C@@H](CCC(=O)O)C(=O)NC(C)(C)C(=O)NCC(=O)O
# B2: Peptide 149 (peptide)
# peptide: H[Aib]QGTFTSDVSK[αMeF]LDSK([AEEA-AEEA-γGlu-C18 diacid])RAQDFVRWVVE[Aib]G-OH
# modifications: N-terminus assumed
# SMILES: CC(C)C[C@H](NC(=O)[C@](C)(Cc1ccccc1)NC(=O)[C@H](CCCCN)NC(=O)[C@H](CO)NC(=O)[C@@H](NC(=O)[C@H](CC(=O)O)NC(=O)[C@H](CO)NC(=O)[C@@H](NC(=O)[C@H](Cc1ccccc1)NC(=O)[C@@H](NC(=O)CNC(=O)[C@H](CCC(N)=O)NC(=O)C(C)(C)NC(=O)[C@@H](N)Cc1c[nH]cn1)[C@@H](C)O)[C@@H](C)O)C(C)C)C(=O)N[C@@H](CC(=O)O)C(=O)N[C@@H](CO)C(=O)N[C@@H](CCCCNC(=O)COCCOCCNC(=O)COCCOCCNC(=O)CC[C@H](NC(=O)CCCCCCCCCCCCCCCCC(=O)O)C(=O)O)C(=O)N[C@@H](CCCNC(=N)N)C(=O)N[C@@H](C)C(=O)N[C@@H](CCC(N)=O)C(=O)N[C@@H](CC(=O)O)C(=O)N[C@@H](Cc1ccccc1)C(=O)N[C@H](C(=O)N[C@@H](CCCNC(=N)N)C(=O)N[C@@H](Cc1c[nH]c2ccccc12)C(=O)N[C@H](C(=O)N[C@H](C(=O)N[C@@H](CCC(=O)O)C(=O)NC(C)(C)C(=O)NCC(=O)O)C(C)C)C(C)C)C(C)C
# B3: Peptide 233 (peptide)
# peptide: H[Aib]HGS[αMeF]TSDVSK[αMeF]LDSRAAK([AEEA-AEEA-γGlu-γGlu-C20 diacid])D[αMeF]VQ[Aib]IANTGG-NH2
# modifications: N-terminus assumed
# SMILES: CC[C@H](C)[C@H](NC(=O)C(C)(C)NC(=O)[C@H](CCC(N)=O)NC(=O)[C@@H](NC(=O)[C@](C)(Cc1ccccc1)NC(=O)[C@H](CC(=O)O)NC(=O)[C@H](CCCCNC(=O)COCCOCCNC(=O)COCCOCCNC(=O)CC[C@H](NC(=O)CC[C@H](NC(=O)CCCCCCCCCCCCCCCCCCC(=O)O)C(=O)O)C(=O)O)NC(=O)[C@H](C)NC(=O)[C@H](C)NC(=O)[C@H](CCCNC(=N)N)NC(=O)[C@H](CO)NC(=O)[C@H](CC(=O)O)NC(=O)[C@H](CC(C)C)NC(=O)[C@](C)(Cc1ccccc1)NC(=O)[C@H](CCCCN)NC(=O)[C@H](CO)NC(=O)[C@@H](NC(=O)[C@H](CC(=O)O)NC(=O)[C@H](CO)NC(=O)[C@@H](NC(=O)[C@](C)(Cc1ccccc1)NC(=O)[C@H](CO)NC(=O)CNC(=O)[C@H](Cc1c[nH]cn1)NC(=O)C(C)(C)NC(=O)[C@@H](N)Cc1c[nH]cn1)[C@@H](C)O)C(C)C)C(C)C)C(=O)N[C@@H](C)C(=O)N[C@@H](CC(N)=O)C(=O)N[C@H](C(=O)NCC(=O)NCC(N)=O)[C@@H](C)O
# B4: Peptide 210 (peptide)
# peptide: H[Aib]HGS[αMeF]TSDVSK[αMeF]LDSQAAK([AEEA-AEEA-γGlu-γGlu-C18 diacid])DFVEWIANT-NH2
# modifications: N-terminus assumed
# SMILES: CC[C@H](C)[C@H](NC(=O)[C@H](Cc1c[nH]c2ccccc12)NC(=O)[C@H](CCC(=O)O)NC(=O)[C@@H](NC(=O)[C@H](Cc1ccccc1)NC(=O)[C@H](CC(=O)O)NC(=O)[C@H](CCCCNC(=O)COCCOCCNC(=O)COCCOCCNC(=O)CC[C@H](NC(=O)CC[C@H](NC(=O)CCCCCCCCCCCCCCCCC(=O)O)C(=O)O)C(=O)O)NC(=O)[C@H](C)NC(=O)[C@H](C)NC(=O)[C@H](CCC(N)=O)NC(=O)[C@H](CO)NC(=O)[C@H](CC(=O)O)NC(=O)[C@H](CC(C)C)NC(=O)[C@](C)(Cc1ccccc1)NC(=O)[C@H](CCCCN)NC(=O)[C@H](CO)NC(=O)[C@@H](NC(=O)[C@H](CC(=O)O)NC(=O)[C@H](CO)NC(=O)[C@@H](NC(=O)[C@](C)(Cc1ccccc1)NC(=O)[C@H](CO)NC(=O)CNC(=O)[C@H](Cc1c[nH]cn1)NC(=O)C(C)(C)NC(=O)[C@@H](N)Cc1c[nH]cn1)[C@@H](C)O)C(C)C)C(C)C)C(=O)N[C@@H](C)C(=O)N[C@@H](CC(N)=O)C(=O)N[C@H](C(N)=O)[C@@H](C)O
# B5: Peptide 215 (peptide)
# peptide: H[Aib]HGS[αMeF]TSDVSK[αMeF]LDSRAAK([AEEA-AEEA-γGlu-C20 diacid])D[αMeF]VQWIANT-NH2
# modifications: N-terminus assumed
# SMILES: CC[C@H](C)[C@H](NC(=O)[C@H](Cc1c[nH]c2ccccc12)NC(=O)[C@H](CCC(N)=O)NC(=O)[C@@H](NC(=O)[C@](C)(Cc1ccccc1)NC(=O)[C@H](CC(=O)O)NC(=O)[C@H](CCCCNC(=O)COCCOCCNC(=O)COCCOCCNC(=O)CC[C@H](NC(=O)CCCCCCCCCCCCCCCCCCC(=O)O)C(=O)O)NC(=O)[C@H](C)NC(=O)[C@H](C)NC(=O)[C@H](CCCNC(=N)N)NC(=O)[C@H](CO)NC(=O)[C@H](CC(=O)O)NC(=O)[C@H](CC(C)C)NC(=O)[C@](C)(Cc1ccccc1)NC(=O)[C@H](CCCCN)NC(=O)[C@H](CO)NC(=O)[C@@H](NC(=O)[C@H](CC(=O)O)NC(=O)[C@H](CO)NC(=O)[C@@H](NC(=O)[C@](C)(Cc1ccccc1)NC(=O)[C@H](CO)NC(=O)CNC(=O)[C@H](Cc1c[nH]cn1)NC(=O)C(C)(C)NC(=O)[C@@H](N)Cc1c[nH]cn1)[C@@H](C)O)C(C)C)C(C)C)C(=O)N[C@@H](C)C(=O)N[C@@H](CC(N)=O)C(=O)N[C@H](C(N)=O)[C@@H](C)O
# B6: Peptide 213 (peptide)
# peptide: H[Aib]HGS[αMeF]TSDVSK[αMeF]LDSRAAK([AEEA-AEEA-γGlu-γGlu-C20 diacid])DFVEWIANT-NH2
# modifications: N-terminus assumed
# SMILES: CC[C@H](C)[C@H](NC(=O)[C@H](Cc1c[nH]c2ccccc12)NC(=O)[C@H](CCC(=O)O)NC(=O)[C@@H](NC(=O)[C@H](Cc1ccccc1)NC(=O)[C@H](CC(=O)O)NC(=O)[C@H](CCCCNC(=O)COCCOCCNC(=O)COCCOCCNC(=O)CC[C@H](NC(=O)CC[C@H](NC(=O)CCCCCCCCCCCCCCCCCCC(=O)O)C(=O)O)C(=O)O)NC(=O)[C@H](C)NC(=O)[C@H](C)NC(=O)[C@H](CCCNC(=N)N)NC(=O)[C@H](CO)NC(=O)[C@H](CC(=O)O)NC(=O)[C@H](CC(C)C)NC(=O)[C@](C)(Cc1ccccc1)NC(=O)[C@H](CCCCN)NC(=O)[C@H](CO)NC(=O)[C@@H](NC(=O)[C@H](CC(=O)O)NC(=O)[C@H](CO)NC(=O)[C@@H](NC(=O)[C@](C)(Cc1ccccc1)NC(=O)[C@H](CO)NC(=O)CNC(=O)[C@H](Cc1c[nH]cn1)NC(=O)C(C)(C)NC(=O)[C@@H](N)Cc1c[nH]cn1)[C@@H](C)O)C(C)C)C(C)C)C(=O)N[C@@H](C)C(=O)N[C@@H](CC(N)=O)C(=O)N[C@H](C(N)=O)[C@@H](C)O
# B7: Peptide 205 (peptide)
# peptide: H[Aib]QGT[αMeF]TSDVSK[αMeF]LDSRAAK([AEEA-AEEA-γGlu-C18 diacid])DFVQWIANT-NH2
# modifications: N-terminus assumed
# SMILES: CC[C@H](C)[C@H](NC(=O)[C@H](Cc1c[nH]c2ccccc12)NC(=O)[C@H](CCC(N)=O)NC(=O)[C@@H](NC(=O)[C@H](Cc1ccccc1)NC(=O)[C@H](CC(=O)O)NC(=O)[C@H](CCCCNC(=O)COCCOCCNC(=O)COCCOCCNC(=O)CC[C@H](NC(=O)CCCCCCCCCCCCCCCCC(=O)O)C(=O)O)NC(=O)[C@H](C)NC(=O)[C@H](C)NC(=O)[C@H](CCCNC(=N)N)NC(=O)[C@H](CO)NC(=O)[C@H](CC(=O)O)NC(=O)[C@H](CC(C)C)NC(=O)[C@](C)(Cc1ccccc1)NC(=O)[C@H](CCCCN)NC(=O)[C@H](CO)NC(=O)[C@@H](NC(=O)[C@H](CC(=O)O)NC(=O)[C@H](CO)NC(=O)[C@@H](NC(=O)[C@](C)(Cc1ccccc1)NC(=O)[C@@H](NC(=O)CNC(=O)[C@H](CCC(N)=O)NC(=O)C(C)(C)NC(=O)[C@@H](N)Cc1c[nH]cn1)[C@@H](C)O)[C@@H](C)O)C(C)C)C(C)C)C(=O)N[C@@H](C)C(=O)N[C@@H](CC(N)=O)C(=O)N[C@H](C(N)=O)[C@@H](C)O
# B8: Peptide 250 (peptide)
# peptide: H[Aib]HGS[αMeF]TSDVSK[αMeF]LDSR[Aib]AK([AEEA-AEEA-γGlu-γGlu-C18 diacid])D[αMeF]VESIANT-NH2
# Molecular target: human GLP-1 receptor (human, UniProt P43220)
# Assay: cell-based or functional assay
row,Binder,"cAMP production, hGLP-1R EC50 (pM)"
1,B1,40.2
2,B2,8.71

# Molecular target: human glucagon receptor (human, UniProt P47871)
# Assay: cell-based or functional assay
row,Binder,"cAMP production, hGluc-R EC50 (pM)"
1,B1,568
2,B2,2650

# Molecular target: human glucagon receptor (human, UniProt P47871)
# Assay: cell-based or functional assay
# Remark: another data set of the same source
row,Binder,hGluc-R EC50 (pM)
1,B3,407
2,B4,93.7
3,B5,2610
4,B6,141
5,B7,8.14

# Molecular target: human GLP-1 receptor (human, UniProt P43220)
# Assay: cell-based or functional assay
# Remark: another data set of the same source
row,Binder,hGLP-1R EC50 (pM)
1,B4,156
2,B5,7620
3,B8,601
4,B6,534
5,B7,29.9
